Laboratory results: the supplement of paper PMC10567573
± gives the standard deviation.

Assay: protein stability index of a GFP-peptide fusion (GPS, HEK-293T) (PSI 1-6); higher = more stable
[1] = treatment: DMSO, c terminus: a fixed tail appended
[2] = treatment: MLN4924 1 uM, 8 h, c terminus: a fixed tail appended
[3] = treatment: DMSO, c terminus: native
[4] = treatment: MLN4924 1 uM, 8 h, c terminus: native
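Note: 24-mer peptide tiles fused after GFP, lentivirally expressed, FACS-sorted into six equal bins by GFP/DsRed ratio, decoded by Illumina sequencing, PSI is the read-weighted mean bin number.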

| Sequence | protein stability index [1] | protein stability index [2] | protein stability index [3] | protein stability index [4] |
| --- | --- | --- | --- | --- |
| TFHEGKHNISHMSMDIARGLMVTC [WDFY1] | 2.49 ± 0.63 | 2.04 ± 0.14 | – | – |
| IVDQVLEEDFDSEQLSVLASCLQE [INTS3] | 4.16 ± 0.16 | 4.23 ± 0.3 | – | – |
| SLPPPAGLNSSWVELPMNSSNGND [BNIP3L] | 4.94 ± 0.26 | 4.88 ± 0.29 | – | – |
| NTTLTQYQLLATHVPTVWAIDQYR [RHOBTB1] | 2.75 ± 0.56 | 2.41 ± 0.43 | – | – |
| GQYATTKGISQTNLITTVTPEKKA [EPB41L3] | 5.07 ± 0.2 | 5.11 ± 0.17 | – | – |
| RSLFSSVPSKPPMSLEPQNGTYAG [ANKRD40] | 3.51 ± 0.19 | 4.29 ± 0.41 | – | – |
| PATSPLVLAIPRRLRVELECEEGE [TRIM35] | 4.92 ± 0.22 | 4.78 ± 0.13 | – | – |
| KVLLCHGELRSKSGHKLYIFLFQD [NET1] | 2.62 ± 0.55 | 2.57 ± 0.57 | – | – |
| MVDIIFHYPFLGAMGDHSKKKPGT [ISL2] | 2.34 ± 0.28 | 2.38 ± 0.61 | – | – |
| LYFQWYIFYFVIQRKKWVDLAWMI [FADS1] | 2.25 ± 0.7 | 3.09 ± 0.93 | – | – |
| RGNVVLRAQMIRNEYRKLHPVLHK [TRIM43] | 2.25 ± 0.38 | 2.77 ± 0.56 | – | – |
| VQAPRWGNPRALSFVLSSLQLGEG [OAS1] | 2.31 ± 0.2 | 2.24 ± 0.22 | – | – |
| MQGNQILVFPSSSSSSSSQAPGQP [ZBTB22] | 4.28 ± 0.24 | 4.22 ± 0.22 | – | – |
| QKQQAPRMDTPPPEERLEKQNEKL [CCDC89] | 5.46 ± 0.44 | 5.62 ± 0.2 | – | – |
| WAEAECQRQQLPVTFGNKQKVLGK [BTBD1] | 4.42 ± 0.45 | 4.31 ± 0.42 | – | – |
| QTASRSLVLSEDRKSVRYTRQKKN [TRIM15] | 4.83 ± 0.27 | 4.8 ± 0.24 | – | – |
| ILTEPAQAQKCYRDLALVSRDGMN [INTS3] | 3.28 ± 0.3 | 3.24 ± 0.6 | – | – |
| QQPPPPRRAGAACTLRQKLIFSPC [WEE1] | 2.79 ± 0.46 | 2.94 ± 0.099 | – | – |
| LQQIADFMTTNVPNVYPAAPQGGM [ADD1] | 3.3 ± 0.2 | 3.29 ± 0.17 | – | – |
| QLPGLLNFGEFKCSDSDKKCHLWT [CLCN6] | 2.56 ± 0.43 | 2.45 ± 0.36 | – | – |
| KCVVHIHTPAGAAVSAMKCGLLPI [ADD1] | 2.69 ± 0.52 | 2.17 ± 0.56 | – | – |
| LAVYHRLWDRAYVRLKPALQRLDF [RETREG3] | 2.31 ± 0.38 | 2.56 ± 0.4 | – | – |
| ASHLGNELEGTEELCCVAELDNPM [C2CD2L] | 5.2 ± 0.23 | 5.25 ± 0.18 | – | – |

| Sequence | protein stability index [1] | protein stability index [2] | protein stability index [3] | protein stability index [4] |
| --- | --- | --- | --- | --- |
| SFPRNNISYLVLSMISMGLFSIAP [JAGN1] | 3.32 ± 0.2 | 3.42 ± 0.42 | – | – |
| HHSLASSLRSHHTHPSYGPPGVPP [DVL3] | 3.51 ± 0.29 | 3.58 ± 0.22 | – | – |
| AMEYAPGGTLAEFIQKRCNSLLEE [NEK8] | 3.56 ± 0.36 | 3.3 ± 0.29 | – | – |
| QTNKPALRAVRQRSEFTLMAKRIG [STX5] | 3.15 ± 0.29 | 3.35 ± 0.25 | – | – |
| SVVRRCVKVLAGQEYAAKIINTKK [CAMK2A] | 2.72 ± 0.35 | 2.52 ± 0.5 | – | – |
| IHGTLHLERLAYLHARLRELLCEL [PRAME] | 2.04 ± 0.3 | 2.06 ± 0.31 | – | – |
| ILILEGGYNLTSISESMAACTRSL [HDAC6] | 2.97 ± 0.61 | 2.63 ± 0.8 | – | – |
| SLLVTELGSSRTPETVRMVLSNME [IMPA1] | 3.15 ± 0.39 | 3.4 ± 0.23 | – | – |
| SHYTSPSENMWNTGSTYNLSSGMA [CARM1] | 2.84 ± 0.37 | 3.14 ± 0.21 | – | – |
| HLCLRKADQKLVIIKQIPVEQMTK [NEK8] | 2.46 ± 0.19 | 2.75 ± 0.23 | – | – |
| PAVEACENRRKVLYQRAPRNIHRH [TCF25] | 3.88 ± 0.23 | 3.81 ± 0.15 | – | – |
| GIVEAMVVCRQLGLGFASNAFQET [LOXL2] | – | 2.393 ± 0.002 | – | – |
| QKNFGLYVQEKRDGLKRRQQLEEE [RAD54B] | 4.7 ± 0.32 | 4.66 ± 0.2 | – | – |
| CLAKGTFSDVTFILDDGTISAHKP [RHOBTB2] | 2.36 ± 0.27 | 2.46 ± 0.17 | – | – |
| CPWEPQKQPPWEFLQVLEPGARGL [SPAG8] | 3.11 ± 0.24 | 3.36 ± 0.11 | – | – |
| QPGLSFLNLGSGTGYLSSMVGLIL [PCMTD2] | 2.12 ± 0.15 | 2.28 ± 0.27 | – | – |
| KEMEQLFSQYGRIITSRILVDQVT [ELAVL3] | 2.94 ± 0.24 | 3.41 ± 0.58 | – | – |
| IFRSYSRGAQGVILVYDIANRWSF [RAB40A] | 2.53 ± 0.36 | 2.36 ± 0.35 | – | – |
| CHLTPSIYTEFPDETLRSGELLNM [INTS3] | 3.04 ± 0.17 | 2.99 ± 0.24 | – | – |
| EQTFSPAKSLSFRKGELVTASKAI [ADD1] | 3.99 ± 0.17 | 4.14 ± 0.28 | – | – |
| GLPGAEGVEPAPWAQLEAPARLLL [FANCE] | 3.33 ± 0.45 | 3.3 ± 0.05 | – | – |
| IHLDPRTREGFTLLHLAVNSNTPV [FEM1B] | 2.24 ± 0.41 | 2.17 ± 0.27 | – | – |
| MLRSGLSGLGSCLPGSYLSSECHT [KRT36] | 2.42 ± 0.12 | 2.37 ± 0.092 | – | – |

| Sequence | protein stability index [1] | protein stability index [2] | protein stability index [3] | protein stability index [4] |
| --- | --- | --- | --- | --- |
| QLQPTSIEKEVFPIMAKEGQLYAM [GMPPB] | 3.1 ± 0.27 | 2.96 ± 0.5 | – | – |
| QLYCEKVQGLMKEYLLSFPAGKTP [VPS39] | 2.27 ± 0.16 | 2.41 ± 0.16 | – | – |
| ASGVGFILGPVVGGYLTELEDGFY [MFSD9] | 2.05 ± 0.62 | 2.17 ± 0.23 | – | – |
| MVKEPVEDTDPSTLSFNMSDKYPI [EDARADD] | 4.37 ± 0.43 | 4.5 ± 0.29 | – | – |
| ANIEEVLQRGEALSALDSKANNLS [SEC22B] | 4.94 ± 0.16 | 4.89 ± 0.18 | – | – |
| YAHQPRTADEIPMEPGDIIGVAGN [FUT8] | 4.2 ± 0.24 | 4.36 ± 0.17 | – | – |
| VLTKKFQVTMRGLLSCLSKSNNRL [FBXO39] | 3.16 ± 0.51 | 3.24 ± 1.2 | – | – |
| TCVNLLLEASNYQMMPYMQPVMQS [KLHL13] | 3.06 ± 0.41 | 2.98 ± 0.36 | – | – |
| LPAVKVFLDWLRTNPDLIIVCAQS [SMG5] | 2.27 ± 0.47 | 2.41 ± 0.45 | – | – |
| VKWMVVFAIGVCTGLVGLFVDFFV [CLCN6] | 2.16 ± 0.31 | 2.42 ± 0.46 | – | – |
| APKVNAVDTLNVKDIAPEKQLLNS [DLC1] | 4.88 ± 0.2 | 4.82 ± 0.35 | – | – |
| LEFFYGIATATEIAYYSYIYSVVD [SLC19A2] | 3.5 ± 0.48 | 3.27 ± 0.46 | – | – |
| VNSYYSSPAQQVPKNPALEAFLAQ [TOR1AIP2] | 3.45 ± 0.36 | 3.66 ± 0.25 | – | – |
| DLDAKIREALVLRSVRVRLLLSFW [PLD5] | 3.52 ± 0.33 | 2.53 ± 0.86 | – | – |
| PRLFKEWNITKLSIEYDSEPFGKE [CRY1] | 3.06 ± 0.33 | 3.46 ± 0.39 | – | – |
| LFEAGDATLASDLQDWASVGAFL [FOXJ1] | – | – | 3.59 ± 0.15 | 3.49 ± 0.34 |
| SLQQQHQADLELIESAHRSRIKVL [FBF1] | 3.53 ± 0.074 | 3.47 ± 0.31 | – | – |
| ICQGIRGLWGTTLTENTAENRELY [PKD2L1] | 3.03 ± 0.19 | 3.37 ± 0.21 | – | – |
| DQDEGEWGLDQEQVFSLGDGVSGG [ZBED1] | 5.57 ± 0.17 | 5.42 ± 0.12 | – | – |
| HYAGQDATDPFVAFHINKGLVKKY [FADS1] | 3.21 ± 0.26 | 3.14 ± 0.11 | – | – |
| AVEAELKSSTVGLVTLNDMKAKQE [FAM50A] | 5.21 ± 0.2 | 5.25 ± 0.13 | – | – |
| VAVLLLFLVVREPPRGAVERHSDL [SPNS1] | 3.02 ± 0.64 | 2.99 ± 0.53 | – | – |
| SIAFRLRLASFDSSGKLICSRTTG [GMCL1] | 2.52 ± 0.4 | 2.09 ± 0.34 | – | – |

| Sequence | protein stability index [1] | protein stability index [2] | protein stability index [3] | protein stability index [4] |
| --- | --- | --- | --- | --- |
| GMPPAGTGMPMMPQQPVMFAQPMM [SNAP91] | 3.03 ± 0.17 | 3.2 ± 0.34 | – | – |
| GRWLRSTRFSGSLDRLRETRVAD [PCDHGC5] | – | – | 2.62 ± 0.48 | 2.84 ± 0.14 |
| AFPQTPFKTGNSTATCTTNNNPNS [KCNA3] | 4.61 ± 0.4 | 4.62 ± 0.17 | – | – |
| RDEESFFGERRIPRGRRISVICRS [ALKBH7] | 3.24 ± 0.24 | 3.65 ± 0.24 | – | – |
| KELDENVEYEERESEFDIEDEDKS [RBBP5] | 5.65 ± 0.23 | 5.62 ± 0.32 | – | – |
| TNEWEKRLSTSPVRLAARQEDAPM [EPB41L3] | 4.83 ± 0.16 | 4.51 ± 0.44 | – | – |
| PVASSGEFFGSASQPAVELVSGSQ [CLINT1] | 4.57 ± 0.16 | 4.82 ± 0.21 | – | – |
| SLSTSSSSSPPGTPSPADAKAPPT [CEBPB] | 5.42 ± 0.15 | 5.34 ± 0.19 | – | – |
| IFSLATEWVISTGHDKCVSWMCTR [WDFY1] | 2.94 ± 0.47 | 2.85 ± 0.66 | – | – |
| VGGTIRTCQKFLIQYNRRQLLILL [POP5] | 2.96 ± 0.47 | 2.64 ± 0.67 | – | – |
| ATSRTDREIKVTLVFEHVDQDLRT [CDK4] | 2.2 ± 0.3 | 2.26 ± 0.41 | – | – |
| QECLKQLAIKKQQHIDNITQIEDA [TRIM14] | 4.93 ± 0.19 | 4.72 ± 0.22 | – | – |
| EGSRSSGSNRSGSDRRKEKDPKAG [DVL3] | 5.38 ± 0.15 | 5.5 ± 0.2 | – | – |
| NVEDHINPKLPNISLDVLQPSFPE [POMT2] | 4.58 ± 0.22 | 4.7 ± 0.15 | – | – |
| ARLQEPVTFRDVAVDFTQEEWGQL [ZNF8] | 4.13 ± 0.2 | 4.07 ± 0.22 | – | – |
| MRHEELLTKTFQGPAVVCGTPTSH [LYSMD4] | 3.82 ± 0.19 | 3.82 ± 0.13 | – | – |
| EDENDLEELNNGEPQTEHQQESES [MIA2] | 5.57 ± 0.21 | 5.74 ± 0.12 | – | – |
| WIDIKQFVWYTPPTFMIAVFLPIV [STEAP1] | 2.67 ± 0.36 | 3.39 ± 0.61 | – | – |
| TIYGLHALEQGGLRAATMSAVEAA [PYCR3] | 2.85 ± 0.65 | 3.22 ± 0.8 | – | – |
| QYEKMAEKNRKDAEDWFFSKTEEL [KRT17] | 4.68 ± 0.18 | 4.86 ± 0.18 | – | – |
